# Values joined by “and” are separate entries in the source; they are usually repeats but may differ in a detail not shown here. Equal values may be shown once.
# T1: human IL-11 (human, UniProt P20809 22-199)
# T1 sequence: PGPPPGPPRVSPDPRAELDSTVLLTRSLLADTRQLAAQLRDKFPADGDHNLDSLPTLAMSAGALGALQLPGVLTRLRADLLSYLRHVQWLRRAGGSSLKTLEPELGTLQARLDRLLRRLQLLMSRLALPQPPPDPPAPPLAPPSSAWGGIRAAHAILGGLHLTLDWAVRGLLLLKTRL
# T2: murine IL-11 (mouse, UniProt P47873 22-199)
# T2 sequence: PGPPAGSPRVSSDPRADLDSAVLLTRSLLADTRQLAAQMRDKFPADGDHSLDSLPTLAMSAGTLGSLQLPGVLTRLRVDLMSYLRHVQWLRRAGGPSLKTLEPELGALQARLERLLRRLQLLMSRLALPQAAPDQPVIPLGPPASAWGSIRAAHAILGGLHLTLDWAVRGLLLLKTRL
# T3: human IL-11 (human, UniProt P20809 22-199)
# T3 sequence: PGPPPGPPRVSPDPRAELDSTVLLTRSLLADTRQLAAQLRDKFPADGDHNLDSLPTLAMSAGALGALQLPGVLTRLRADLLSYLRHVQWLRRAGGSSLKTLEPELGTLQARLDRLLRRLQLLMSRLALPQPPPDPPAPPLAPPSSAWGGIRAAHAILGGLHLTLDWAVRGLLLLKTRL
# T4: murine IL-11 (mouse, UniProt P47873 22-199)
# T4 sequence: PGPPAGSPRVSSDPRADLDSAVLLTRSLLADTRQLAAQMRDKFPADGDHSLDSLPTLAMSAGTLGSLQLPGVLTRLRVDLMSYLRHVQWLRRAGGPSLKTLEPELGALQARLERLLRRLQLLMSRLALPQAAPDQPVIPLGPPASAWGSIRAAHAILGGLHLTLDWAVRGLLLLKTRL
# How the values were obtained:
# Assay in all cases: cell-based or functional assay
# human IL-11 [1] = target: T1, human IL-11
# murine IL-11 [2] = target: T2, murine IL-11
# human IL-11 [3] = target: T3, human IL-11; remark: listed apart in the source
# murine IL-11 [4] = target: T4, murine IL-11; remark: listed apart in the source
Binder,RGA Efficacy (%) (human IL-11 [1]),RGA IC50 (human IL-11 [1]),RGA Efficacy (%) (murine IL-11 [2]),RGA IC50 (murine IL-11 [2]),"IC50, RGA 1 (human IL-11 [3])","IC50, RGA 2 (human IL-11 [3])","IC50, RGA 1 (murine IL-11 [4])","IC50, RGA 2 (murine IL-11 [4])"
"TPP-26290 (antibody, V domains shown) VH: EVQLLESGGGLVQPGGSLRLSCAASGFTFSSYGMHWVRQAPGKGLEWVSVISYDGSYKYYADSVKGRFTISRDNSKNTLYLQMNSLRAEDTAVYYCAAGVPDYWGQGTLVTVSS VL: QSVLTQPPSASGTPGQRVTISCTGSSSNIGAGMDVHWYQQLPGTAPKLLIYSNNERPSGVPDRFSGSKSGTSASLAISGLRSEDEADYYCAAWDDSLNGPVFGGGTKLTVL",75.9%,4.7 nM,95.1%,0.97 nM,–,–,–,–
"TPP-26301 (antibody, V domains shown) VH: EVQLLESGGGLVQPGGSLRLSCAASGFTFSSYGMHWVRQAPGKGLEWVSVISYDGSYKYYADSVKGRFTISRDNSKNTLYLQMNSLRAEDTAVYYCAAGVPDYWGQGTLVTVSS VL: QSVLTQPPSASGTPGQRVTISCTGSSSNIGADYDVHWYQQLPGTAPKLLIYSNNERPSGVPDRFSGSKSGTSASLAISGLRSEDEADYYCAAWDDSLNGPVFGGGTKLTVL",76.1%,2.6 nM,91.8%,1.5 nM,–,–,–,–
"TPP-26312 (antibody, V domains shown) VH: EVQLLESGGGLVQPGGSLRLSCAASGFTFSSYGMHWVRQAPGKGLEWVSVISYDGSYKYYADSVKGRFTISRDNSKNTLYLQMNSLRAEDTAVYYCAAGVPDYWGQGTLVTVSS VL: QSVLTQPPSASGTPGQRVTISCTGSSSNIGAGLDVHWYQQLPGTAPKLLIYSNNERPSGVPDRFSGSKSGTSASLAISGLRSEDEADYYCAAWDDSLNGPVFGGGTKLTVL",68.6%,3.8 nM,87.3%,1.2 nM,–,–,–,–
"TPP-31295 (antibody, IgG4, V domains shown) VH: EVQLLESGGGLVQPGGSLRLSCAASGFTFSHYDMNWLRQAPGKGLEWVGVISYDGSNKYYADFVKGRFTISRDNSKNTLYLQMNSLRAEDTAVYYCARTPGSHFDYWGQGTLVTVSS VL: QSVLTQPPSASGTPGQRVTISCSGSSSNIGNNAVNWYQQLPGTAPKLLIYYDDLLPSGVPDRFSGSKSGTSASLAISGLRSEDEADYYCSAWDDSLNGVVFGGGTKLTVL",–,–,–,–,364 nM,92 nM,60 nM,37 nM
"TPP-31304 (antibody, IgG4, V domains shown) VH: EVQLLESGGGLVQPGGSLRLSCAASGFTFSHYDMNWLRQAPGKGLEWVGVISYDASNKFYADFVKGRFTISRDNSKNTLYLQMNSLRAEDTAVYYCARTPGSHFDYWGQGTLVTVSS VL: QSVLTQPPSASGTPGQRVTISCSGSSSNIGNNAVNWYQQLPGTAPKLLIYYDDLLPSGVPDRFSGSKSGTSASLAISGLRSEDEADYYCSAWDDSLNGVVFGGGTKLTVL",–,–,–,–,104 nM,35 nM,42 nM,21 nM
"TPP-31297 (antibody, IgG4, V domains shown) VH: EVQLLESGGGLVQPGGSLRLSCAASGFTFSHYDMNWLRQAPGKGLEWVGVISYDGSNKFYADFVKGRFTISRDNSKNTLYLQMNSLRAEDTAVYYCARTPGSHFDYWGQGTLVTVSS VL: QSVLTQPPSASGTPGQRVTISCSGSSSNIGNNAVNWYQQLPGTAPKLLIYYDDLLPSGVPDRFSGSKSGTSASLAISGLRSEDEADYYCSAWDDSLQGVVFGGGTKLTVL",–,–,–,–,181 nM,22 nM,37 nM,7.93 nM
"TPP-31305 (antibody, IgG4, V domains shown) VH: EVQLLESGGGLVQPGGSLRLSCAASGFTFSHYDMNWLRQAPGKGLEWVGVISYDASNKFYADFVKGRFTISRDNSKNTLYLQMNSLRAEDTAVYYCARTPGSHFDYWGQGTLVTVSS VL: QSVLTQPPSASGTPGQRVTISCSGSSSNIGNNAVNWYQQLPGTAPKLLIYYDDLLPSGVPDRFSGSKSGTSASLAISGLRSEDEADYYCSAWDDSLQGVVFGGGTKLTVL",–,–,–,–,182 nM,47 nM,30 nM,29 nM
"TPP-31299 (antibody, IgG4, V domains shown) VH: EVQLLESGGGLVQPGGSLRLSCAASGFTFSHYDMNWLRQAPGKGLEWVGVISYDGSNKFYADFVKGRFTISRDNSKNTLYLQMNSLRAEDTAVYYCARTPGSHFDYWGQGTLVTVSS VL: QSVLTQPPSASGTPGQRVTISCSGSSSNIGNNAVNWYQQLPGTAPKLLIYYDDLLPSGVPDRFSGSKSGTSASLAISGLRSEDEADYYCSAWDDSLNAVVFGGGTKLTVL",–,–,–,–,238 nM,114 nM,44 nM,14 nM
"TPP-18087 (antibody, mouse IgG1, V domains shown) VH: EVQLLESGGGLVQPGGSLRLSCAASGFTFSHYDMNWLRQAPGKGLEWVGVISYDGSNKFYADFVKGRFTISRDNSKNTLYLQMNSLRAEDTAVYYCARTPGSHFDYWGQGTLVTVSS VL: QSVLTQPPSASGTPGQRVTISCSGSSSNIGNNAVNWYQQLPGTAPKLLIYYDDLLPSGVPDRFSGSKSGTSASLAISGLRSEDEADYYCSAWDDSLNGVVFGGGTKLTVLG",–,–,–,–,111 nM and 93 nM,12 nM,204 nM and 231 nM,21 nM
"TPP-31306 (antibody, IgG4, V domains shown) VH: EVQLLESGGGLVQPGGSLRLSCAASGFTFSHYDMNWLRQAPGKGLEWVGVISYDASNKFYADFVKGRFTISRDNSKNTLYLQMNSLRAEDTAVYYCARTPGSHFDYWGQGTLVTVSS VL: QSVLTQPPSASGTPGQRVTISCSGSSSNIGNNAVNWYQQLPGTAPKLLIYYDDLLPSGVPDRFSGSKSGTSASLAISGLRSEDEADYYCSAWDDSLSGVVFGGGTKLTVL",–,–,–,–,126 nM,23 nM,57 nM,60 nM
"TPP-31303 (antibody, IgG4, V domains shown) VH: EVQLLESGGGLVQPGGSLRLSCAASGFTFSHYDMNWLRQAPGKGLEWVGVISYEGSNKFYADFVKGRFTISRDNSKNTLYLQMNSLRAEDTAVYYCARTPGSHFDYWGQGTLVTVSS VL: QSVLTQPPSASGTPGQRVTISCSGSSSNIGNNAVNWYQQLPGTAPKLLIYYDDLLPSGVPDRFSGSKSGTSASLAISGLRSEDEADYYCSAWDDSLNAVVFGGGTKLTVL",–,–,–,–,9.08 nM,11 nM,4.38 nM,2.49 nM
"TPP-31301 (antibody, IgG4, V domains shown) VH: EVQLLESGGGLVQPGGSLRLSCAASGFTFSHYDMNWLRQAPGKGLEWVGVISYEGSNKFYADFVKGRFTISRDNSKNTLYLQMNSLRAEDTAVYYCARTPGSHFDYWGQGTLVTVSS VL: QSVLTQPPSASGTPGQRVTISCSGSSSNIGNNAVNWYQQLPGTAPKLLIYYDDLLPSGVPDRFSGSKSGTSASLAISGLRSEDEADYYCSAWDDSLQGVVFGGGTKLTVL",–,–,–,–,18.9 nM,9.71 nM,4.43 nM,1.77 nM
"TPP-31307 (antibody, IgG4, V domains shown) VH: EVQLLESGGGLVQPGGSLRLSCAASGFTFSHYDMNWLRQAPGKGLEWVGVISYDASNKFYADFVKGRFTISRDNSKNTLYLQMNSLRAEDTAVYYCARTPGSHFDYWGQGTLVTVSS VL: QSVLTQPPSASGTPGQRVTISCSGSSSNIGNNAVNWYQQLPGTAPKLLIYYDDLLPSGVPDRFSGSKSGTSASLAISGLRSEDEADYYCSAWDDSLNAVVFGGGTKLTVL",–,–,–,–,> 500 nM,126 nM,45 nM,37 nM
"TPP-31300 (antibody, IgG4, V domains shown) VH: EVQLLESGGGLVQPGGSLRLSCAASGFTFSHYDMNWLRQAPGKGLEWVGVISYEGSNKFYADFVKGRFTISRDNSKNTLYLQMNSLRAEDTAVYYCARTPGSHFDYWGQGTLVTVSS VL: QSVLTQPPSASGTPGQRVTISCSGSSSNIGNNAVNWYQQLPGTAPKLLIYYDDLLPSGVPDRFSGSKSGTSASLAISGLRSEDEADYYCSAWDDSLNGVVFGGGTKLTVL",–,–,–,–,1.09 nM,4.75 nM,3.42 nM,0.81 nM
"TPP-31298 (antibody, IgG4, V domains shown) VH: EVQLLESGGGLVQPGGSLRLSCAASGFTFSHYDMNWLRQAPGKGLEWVGVISYDGSNKFYADFVKGRFTISRDNSKNTLYLQMNSLRAEDTAVYYCARTPGSHFDYWGQGTLVTVSS VL: QSVLTQPPSASGTPGQRVTISCSGSSSNIGNNAVNWYQQLPGTAPKLLIYYDDLLPSGVPDRFSGSKSGTSASLAISGLRSEDEADYYCSAWDDSLSGVVFGGGTKLTVL",–,–,–,–,135 nM,33 nM,21 nM,6.22 nM
"TPP-31308 (antibody, IgG4, V domains shown) VH: EVQLLESGGGLVQPGGSLRLSCAASGFTFSHYDMNWLRQAPGKGLEWVGVISYDSSNKFYADFVKGRFTISRDNSKNTLYLQMNSLRAEDTAVYYCARTPGSHFDYWGQGTLVTVSS VL: QSVLTQPPSASGTPGQRVTISCSGSSSNIGNNAVNWYQQLPGTAPKLLIYYDDLLPSGVPDRFSGSKSGTSASLAISGLRSEDEADYYCSAWDDSLNGVVFGGGTKLTVL",–,–,–,–,> 500 nM,> 500 nM,63 nM,170 nM
"TPP-31302 (antibody, IgG4, V domains shown) VH: EVQLLESGGGLVQPGGSLRLSCAASGFTFSHYDMNWLRQAPGKGLEWVGVISYEGSNKFYADFVKGRFTISRDNSKNTLYLQMNSLRAEDTAVYYCARTPGSHFDYWGQGTLVTVSS VL: QSVLTQPPSASGTPGQRVTISCSGSSSNIGNNAVNWYQQLPGTAPKLLIYYDDLLPSGVPDRFSGSKSGTSASLAISGLRSEDEADYYCSAWDDSLSGVVFGGGTKLTVL",–,–,–,–,14.5 nM,7.13 nM,3.49 nM,1.17 nM

# Reference: US20240317847A1 (Bayer, published 2024)
